Patent US20260053904A1 (BIOATLA, published 2026)

T1: recombinant human EpCAM extracellular domain (human, UniProt P16422 24-265)
T1 construct: extracellular domain; Plate-coated antigen of the ELISAs; also called human EpCAM ECD; recombinant EpCAM antigen
T1 sequence (looked up): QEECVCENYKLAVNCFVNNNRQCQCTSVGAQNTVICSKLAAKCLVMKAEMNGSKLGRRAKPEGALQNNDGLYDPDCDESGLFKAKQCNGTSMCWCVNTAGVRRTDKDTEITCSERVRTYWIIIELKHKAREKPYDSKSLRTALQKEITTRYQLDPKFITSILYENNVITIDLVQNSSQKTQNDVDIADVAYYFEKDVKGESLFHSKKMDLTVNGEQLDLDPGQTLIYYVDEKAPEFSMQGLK

T2: human EpCAM expressed on cells (CHO, Colo205, 293) (human, UniProt P16422 24-314)
T2 sequence (looked up): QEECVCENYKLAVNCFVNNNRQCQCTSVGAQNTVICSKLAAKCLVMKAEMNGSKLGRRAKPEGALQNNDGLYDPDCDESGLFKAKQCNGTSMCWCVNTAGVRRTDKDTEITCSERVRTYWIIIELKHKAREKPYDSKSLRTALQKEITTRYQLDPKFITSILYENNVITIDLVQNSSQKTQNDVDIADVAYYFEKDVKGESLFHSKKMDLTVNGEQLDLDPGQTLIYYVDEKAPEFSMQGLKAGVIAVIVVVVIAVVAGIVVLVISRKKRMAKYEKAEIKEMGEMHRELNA


Assays:
[1] = molecular target: T1, recombinant human EpCAM extracellular …; test: ELISA on human EpCAM, pH range 5.0 to 7.4
[2] = molecular target: T2, human EpCAM expressed on cells (CHO, …); test: cell-based or functional assay
[3] = molecular target: T1, recombinant human EpCAM extracellular …; test: ELISA with pH titration, human EpCAM
Description: The binding activities of the humanized conditionally active anti-EpCAM antibodies to human EpCAM with pH titration were also measured by ELISA.
(§1) The ELISA assay was performed using the following protocol: [0388] 1) Coat ELISA plates with 100 μL of 0.5 μg/mL (06_20_17 and 06_28_17 Experiments) or 1 μg/mL (07_06_17 and 07_11_17 Experiments) recombinant EpCAM antigen in carbonate-bicarbonate coating buffer [0389] 2) Cover plates with sealing film and incubate overnight at 4° C. [0390] 3) Decant plates and tap out residual liquid on a stack of paper towels [0391] […] 5) Add 200 μL of various pH incubation buffers to the wells according to the sample map.

[4] = molecular target: T3, cyno EpCAM expressed on 293 cells (cynomolgus monkey); test: FACS on 293 cells expressing cyno EpCAM, pH 7.4
T3 construct: whole, on cells; also called 293 cells expressing cyno EpCAM
T3 sequence (Q1WER1 24-314): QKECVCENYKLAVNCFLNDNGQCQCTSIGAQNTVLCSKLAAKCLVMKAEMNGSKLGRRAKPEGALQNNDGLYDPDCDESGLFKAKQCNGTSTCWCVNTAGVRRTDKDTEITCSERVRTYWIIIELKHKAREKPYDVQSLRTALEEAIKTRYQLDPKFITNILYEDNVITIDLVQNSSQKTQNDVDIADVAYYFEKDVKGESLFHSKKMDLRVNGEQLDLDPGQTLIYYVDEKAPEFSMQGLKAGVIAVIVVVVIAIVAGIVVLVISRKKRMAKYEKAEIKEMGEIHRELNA
Description: (§2) A similar FACS analysis was also carried out using 293 cells expressing cyno EpCAM. […] The EC50 values for binding to the 293 cells expressing cyno EpCAM by the humanized conditionally active anti-EpCAM antibodies are summarized in Table 11.

[5] = molecular target: T2, human EpCAM expressed on cells (CHO, …); test: FACS on Colo205 cells expressing human EpCAM, pH 7.4
Description: (§3) Binding activities of the humanized conditionally active anti-EpCAM antibodies to Colo205 cells expressing human EpCAM were measured by FACS at pH 6.0 and pH 7.4. […] The EC50 values for binding to the Colo205 cells expressing human EpCAM by the humanized conditionally active anti-EpCAM antibodies are summarized in Table 9.

[6] = molecular target: T4, cyno EpCAM (recombinant, ELISA antigen) (cynomolgus monkey); test: ELISA, cyno EpCAM, pH 7.4
T4 construct: extracellular domain; also called cynomolgus EpCAM extracellular domain
T4 sequence (Q1WER1 24-265): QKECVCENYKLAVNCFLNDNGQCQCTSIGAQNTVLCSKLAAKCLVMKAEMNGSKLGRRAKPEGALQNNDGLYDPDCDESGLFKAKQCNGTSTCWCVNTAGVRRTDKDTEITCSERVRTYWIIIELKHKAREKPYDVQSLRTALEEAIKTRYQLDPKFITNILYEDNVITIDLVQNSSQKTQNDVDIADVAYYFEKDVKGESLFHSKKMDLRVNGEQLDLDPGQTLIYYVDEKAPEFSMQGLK
Description: (§4) The binding activities of the humanized conditionally active anti-EpCAM antibodies to cyno EpCAM were similarly measured. The EC50 for binding to the cyno EpCAM at pH 6.0 and pH 7.4 for the humanized conditionally active anti-EpCAM antibodies are summarized in Table 7.
as §1

[7] = molecular target: T2, human EpCAM expressed on cells (CHO, …); test: FACS on Colo205 cells expressing human EpCAM, pH 6.0
Description: as §3

[8] = molecular target: T1, recombinant human EpCAM extracellular …; test: ELISA, human EpCAM, pH 7.4
Description: (§5) The binding activities of the humanized conditionally active anti-EpCAM antibodies to human EpCAM were measured by ELISA, using the template antibody BAP-1-5-01-06, as a control. The EC50 values of the humanized conditionally active anti-EpCAM antibodies for binding to human EpCAM at pH 6.0 and pH 7.4 are summarized in Table 5.
as §1

[9] = molecular target: T1, recombinant human EpCAM extracellular …; test: ELISA, human EpCAM, pH 6.0
Description: as §5, §1

[10] = molecular target: T4, cyno EpCAM (recombinant, ELISA antigen); test: ELISA with pH titration, cyno EpCAM
Description: The binding activities of the humanized conditionally active anti-EpCAM antibodies to cyno EpCAM with pH titration was similarly measured by ELISA.
as §1

[11] = molecular target: T4, cyno EpCAM (recombinant, ELISA antigen); test: ELISA, cyno EpCAM, pH 6.0
Description: as §4, §1

[12] = molecular target: T2, human EpCAM expressed on cells (CHO, …); test: FACS on 293 cells expressing human EpCAM, pH 7.4
Description: (§6) A similar FACS analysis was also carried out using 293 cells expressing human EpCAM. […] The EC50 values for binding to the 293 cells expressing human EpCAM by the humanized conditionally active anti-EpCAM antibodies are summarized in Table 10.

[13] = molecular target: T3, cyno EpCAM expressed on 293 cells; test: FACS on 293 cells expressing cyno EpCAM, pH 6.0
Description: as §2

[14] = molecular target: T2, human EpCAM expressed on cells (CHO, …); test: FACS on 293 cells expressing human EpCAM, pH 6.0
Description: as §6

binding result [1] | pH inflection point [3] | EC50 [4] | EC50 [5] | EC50 [6] | EC50 [7] | EC50 [8] | EC50 [9] | pH inflection point [10] | EC50 [11] | EC50 [12] | EC50 [13] | EC50 [14] | Binder | IC50 for the in vitro killing of Colo205 cells, pH6.0 [2] | IC50 for the in vitro killing of Colo205 cells, pH7.4 [2] | ratio (pH7.4/pH6.0) of the IC50 for the in vitro killing of Colo205 cells [2]
binds | – | – | – | – | – | – | – | – | – | – | – | – | BAP-105-01-02 (antibody, V domains shown) VH: QVQLQQSGAELAKPGASVKVSCKASGYTFTSYWMHWVKQRPGQGLEWIGDIRPSTGYTEYNQKFKDKATLTADKSSSTAYMQLSSLTFEDSAVYYCGRGDNWVGFANWGQGTLVTVSA VL: QIVLTQSPAIMSASLGEEIALTCSASSSISYMHWYQQKSGTSPKLLIYSTSNLASGVPSRFSGSGSGTFYSLTISSVEAEDAADYFCHQWSTYHTFGSGTKLEIK | – | – | –
binds | – | – | – | – | – | – | – | – | – | – | – | – | BAP-105-01-05 (antibody, V domains shown) VH: QVQLQQSGAELAKPGASVKVSCKASGYTFTSYWMHWVKQRPGQGLEWIGYIRPSTGYTEYNQKFKDKATLTADKSSSTAYMQLSSLTFEDSAVYYCGRGDNWVGFANWGQGTLVTVSA VL: QIVLTQSPAIMSASLGEEIALTCSASSSISYMHWYQQKSGTSPKLLIYSTSNLASGVPSRFSGSGSGTFYSLTISSVEAEDAADYFCEQWSTYHTFGSGTKLEIK | – | – | –
binds | – | – | – | – | – | – | – | – | – | – | – | – | BAP-105-01-04 (antibody, V domains shown) VH: QVQLQQSGAELAKPGASVKVSCKASGYTFTSYWMHWVKQRPGQGLEWIGYIRPSTGYTEYNQKFKDKATLTADKSSSTAYMQLSSLTFEDSAVYYCGRGDNWVGFANWGQGTLVTVSA VL: QIVLTQSPAIMSASLGEEIALTCSASSSISYMHWYQQKSGTSPKLLIYSTSNLHSGVPSRFSGSGSGTFYSLTISSVEAEDAADYFCHQWSTYHTFGSGTKLEIK | – | – | –
– | 6.6 pH | 14.1 µg/mL | 0.652 µg/mL | 0.0359 µg/mL | 0.321 µg/mL | 114 µg/mL | 0.0154 µg/mL | 6.17 pH | 0.674 µg/mL | 0.238 µg/mL | 2.42 µg/mL | 0.215 µg/mL | BAP-105.4-02-01 (antibody, V domains shown, Humanized) VH: EVQLVQSGAEVKKPGATVKISCKVSGYTFTSYWMHWVRQAPGQGLEWMGYIRPSTGYTEYNQKFKDRFTISRDNSKNTLYLQMNSLRAEDTAVYYCGRGDNWVGFANWGQGTLVTVSS VL: EIVMTQSPATLSVSPGERATLSCSASSSISYMHWYQQKPGKAPKLLIYSTSNLASGVPSRFSGSGSGTEFTLTISSLQPDDFATYYCHQWSTYETFGQGTKVEIK | – | – | –
– | 6.82 pH | 4.46 µg/mL | 0.67 µg/mL | 0.105 µg/mL | 0.497 µg/mL | 0.0487 µg/mL | 0.0191 µg/mL | 6.35 pH | 0.084 µg/mL | 0.159 µg/mL | 1.42 µg/mL | 0.118 µg/mL | BAP-105.4-03-02 (antibody, V domains shown, Humanized) VH: EVQLVQSGAEVKKPGESLRISCKGSGYTFTSYWMHWIRQSPSRGLEWLGYIRPSTGYTEYNQKFKDRVTISADKSISTAYLQWSSLKASDTAMYYCGRGDNWVGFANWGQGTLVTVSS VL: EIVMTQSPATLSVSPGERATLSCSASSSISYMHWYQQKPGKAPKLLIYSTSNLASGIPPRFSGSGYGTDFTLTINNIESEDAAYYFCHQWSTYETFGQGTKVEIK | – | – | –

The remaining lines, values behind:

Binder | binding result [1] | pH inflection point [3] | EC50 [4] | EC50 [5] | EC50 [6] | EC50 [7] | EC50 [8] | EC50 [9] | pH inflection point [10] | EC50 [11] | EC50 [12] | EC50 [13] | EC50 [14] | IC50 for the in vitro killing of Colo205 cells, pH6.0 [2] | IC50 for the in vitro killing of Colo205 cells, pH7.4 [2] | ratio (pH7.4/pH6.0) of the IC50 for the in vitro killing of Colo205 cells [2]
BAP-105-06-01 conjugated to MMAE (antibody, V domains shown, antibody conjugated to MMAE; chain and residues of attachment not stated) VH: EVQLVQSGAEVKKPGATVKISCKVSGYTFTSYWMHWIRQPPGKGLEWIGYIRPSTGYTEYNQKFKDRFTISRDNSKNTLYLQMNSLRAEDTAVYYCGRGDNWVGFANWGQGTLVTVSS VL: EIVLTQSPDFQSVTPKEKVTITCSASSSISYMHWYQQKPGKAPKLLIYSTSKLASGVPDRFSGSGSGTDFTLKISRVEAEDVGVYYCHQWSTYETFGQGTKVEIK | – | – | – | – | – | – | – | – | – | – | – | – | – | 101 ng/mL | 550 ng/mL | 5.47
BAP-105.4-01-02 (antibody, V domains shown, Humanized) VH: EVQLVQSGAEVKKPGESLRISCKGSGYTFTSYWMHWIRQSPSRGLEWLGYIRPSTGYTEYNQKFKDRVTISADKSISTAYLQWSSLKASDTAMYYCGRGDNWVGFANWGQGTLVTVSS VL: EIVLTQSPDFQSVTPKEKVTITCSASSSISYMHWYQQKPGKAPKLLIYSTSNLASGVPDRFSGSGSGTDFTLKISRVEAEDVGVYYCHQWSTYETFGQGTKVEIK | – | 6.87 pH | 6.36 µg/mL | 0.397 µg/mL | 0.208 µg/mL | 0.273 µg/mL | 0.066 µg/mL | 0.0147 µg/mL | 6.27 pH | 0.194 µg/mL | 0.174 µg/mL | 1.26 µg/mL | 0.116 µg/mL | – | – | –
BAP-105-06-02 conjugated to MMAE (antibody, V domains shown, antibody conjugated to MMAE; chain and residues of attachment not stated) VH: EVQLVQSGAEVKKPGATVKISCKVSGYTFTSYWMHWIRQPPGKGLEWIGYIRPSTGYTEYNQKFKDRFTISRDNSKNTLYLQMNSLRAEDTAVYYCGRGDNWVGFANWGQGTLVTVSS VL: EIVLTQSPDFQSVTPKEKVTITCSASSSISYMHWYQQKPGKAPKLLIYSTSSLASGVPDRFSGSGSGTDFTLKISRVEAEDVGVYYCHQWSTYETFGQGTKVEIK | – | – | – | – | – | – | – | – | – | – | – | – | – | 146 ng/mL | 708 ng/mL | 4.86
